Reference: patent US20180155451A1 (published 2018)

T1: FcγRIIb (human, UniProt P31994 43-217)
T1 construct: extracellular domain; also called FcgRIIb; 2b; not shown: His tag at the C terminus
T1 sequence (looked up): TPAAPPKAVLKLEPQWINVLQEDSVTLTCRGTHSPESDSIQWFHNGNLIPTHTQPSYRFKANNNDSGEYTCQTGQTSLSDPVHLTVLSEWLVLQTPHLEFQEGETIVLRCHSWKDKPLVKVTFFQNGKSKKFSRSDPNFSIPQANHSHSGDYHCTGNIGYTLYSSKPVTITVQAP

B1: GpH7-A5/GpH7-B3 variant S239_20W/GpL16-k0 (antibody, human IgG1, kappa)
heavy 1: not shown
heavy 2: not shown
light: DIVMTQSPLSLPVTPGEPASISCQASESLVHSNRNTYLHWYLQKPGQSPQLLIYKVSNRFSGVPDRFSGSGSGTDFTLKISRVEAEDVGVYYCSQNTHVPPTFGQGTKVEIERTVAAPSVFIFPPSDEQLKSGTASVVCLLNNFYPREAKVQWKVDNALQSGNSQESVTEQDSKDSTYSLSSTLTLSKADYEKHKVYACEVTHQGLSSPVTKSFNRGEC
notes: He Ab: mutation only in the GpH7-B3 H chain; EU numbering; also called He Ab
B2: GpH7-A5/GpH7-B3 variant V266_10E/GpL16-k0 (antibody, human IgG1, kappa)
heavy 1: not shown
heavy 2: not shown
light: DIVMTQSPLSLPVTPGEPASISCQASESLVHSNRNTYLHWYLQKPGQSPQLLIYKVSNRFSGVPDRFSGSGSGTDFTLKISRVEAEDVGVYYCSQNTHVPPTFGQGTKVEIERTVAAPSVFIFPPSDEQLKSGTASVVCLLNNFYPREAKVQWKVDNALQSGNSQESVTEQDSKDSTYSLSSTLTLSKADYEKHKVYACEVTHQGLSSPVTKSFNRGEC
notes: as for B1
B3: GpH7-A5/GpH7-B3 variant S267_05P/GpL16-k0 (antibody, human IgG1, kappa)
heavy 1: not shown
heavy 2: not shown
light: DIVMTQSPLSLPVTPGEPASISCQASESLVHSNRNTYLHWYLQKPGQSPQLLIYKVSNRFSGVPDRFSGSGSGTDFTLKISRVEAEDVGVYYCSQNTHVPPTFGQGTKVEIERTVAAPSVFIFPPSDEQLKSGTASVVCLLNNFYPREAKVQWKVDNALQSGNSQESVTEQDSKDSTYSLSSTLTLSKADYEKHKVYACEVTHQGLSSPVTKSFNRGEC
notes: as for B1
B4: GpH7-A5/GpH7-B3 variant V266_01G/GpL16-k0 (antibody, human IgG1, kappa)
heavy 1: not shown
heavy 2: not shown
light: DIVMTQSPLSLPVTPGEPASISCQASESLVHSNRNTYLHWYLQKPGQSPQLLIYKVSNRFSGVPDRFSGSGSGTDFTLKISRVEAEDVGVYYCSQNTHVPPTFGQGTKVEIERTVAAPSVFIFPPSDEQLKSGTASVVCLLNNFYPREAKVQWKVDNALQSGNSQESVTEQDSKDSTYSLSSTLTLSKADYEKHKVYACEVTHQGLSSPVTKSFNRGEC
notes: as for B1
B5: GpH7-A5/GpH7-B3 variant S267_18N/GpL16-k0 (antibody, human IgG1, kappa)
heavy 1: not shown
heavy 2: not shown
light: DIVMTQSPLSLPVTPGEPASISCQASESLVHSNRNTYLHWYLQKPGQSPQLLIYKVSNRFSGVPDRFSGSGSGTDFTLKISRVEAEDVGVYYCSQNTHVPPTFGQGTKVEIERTVAAPSVFIFPPSDEQLKSGTASVVCLLNNFYPREAKVQWKVDNALQSGNSQESVTEQDSKDSTYSLSSTLTLSKADYEKHKVYACEVTHQGLSSPVTKSFNRGEC
notes: as for B1
B6: GpH7-A5/GpH7-B3 variant S267_11K/GpL16-k0 (antibody, human IgG1, kappa)
heavy 1: not shown
heavy 2: not shown
light: DIVMTQSPLSLPVTPGEPASISCQASESLVHSNRNTYLHWYLQKPGQSPQLLIYKVSNRFSGVPDRFSGSGSGTDFTLKISRVEAEDVGVYYCSQNTHVPPTFGQGTKVEIERTVAAPSVFIFPPSDEQLKSGTASVVCLLNNFYPREAKVQWKVDNALQSGNSQESVTEQDSKDSTYSLSSTLTLSKADYEKHKVYACEVTHQGLSSPVTKSFNRGEC
notes: as for B1
B7: GpH7-A5/GpH7-B3 variant V266_04F/GpL16-k0 (antibody, human IgG1, kappa)
heavy 1: not shown
heavy 2: not shown
light: DIVMTQSPLSLPVTPGEPASISCQASESLVHSNRNTYLHWYLQKPGQSPQLLIYKVSNRFSGVPDRFSGSGSGTDFTLKISRVEAEDVGVYYCSQNTHVPPTFGQGTKVEIERTVAAPSVFIFPPSDEQLKSGTASVVCLLNNFYPREAKVQWKVDNALQSGNSQESVTEQDSKDSTYSLSSTLTLSKADYEKHKVYACEVTHQGLSSPVTKSFNRGEC
notes: as for B1
B8: GpH7-A5/GpH7-B3 variant S267_16H/GpL16-k0 (antibody, human IgG1, kappa)
heavy 1: not shown
heavy 2: not shown
light: DIVMTQSPLSLPVTPGEPASISCQASESLVHSNRNTYLHWYLQKPGQSPQLLIYKVSNRFSGVPDRFSGSGSGTDFTLKISRVEAEDVGVYYCSQNTHVPPTFGQGTKVEIERTVAAPSVFIFPPSDEQLKSGTASVVCLLNNFYPREAKVQWKVDNALQSGNSQESVTEQDSKDSTYSLSSTLTLSKADYEKHKVYACEVTHQGLSSPVTKSFNRGEC
notes: as for B1
B9: GpH7-A5/GpH7-B3 variant S267_20W/GpL16-k0 (antibody, human IgG1, kappa)
heavy 1: not shown
heavy 2: not shown
light: DIVMTQSPLSLPVTPGEPASISCQASESLVHSNRNTYLHWYLQKPGQSPQLLIYKVSNRFSGVPDRFSGSGSGTDFTLKISRVEAEDVGVYYCSQNTHVPPTFGQGTKVEIERTVAAPSVFIFPPSDEQLKSGTASVVCLLNNFYPREAKVQWKVDNALQSGNSQESVTEQDSKDSTYSLSSTLTLSKADYEKHKVYACEVTHQGLSSPVTKSFNRGEC
notes: as for B1
B10: GpH7-A5/GpH7-B3 variant V266_13S/GpL16-k0 (antibody, human IgG1, kappa)
heavy 1: not shown
heavy 2: not shown
light: DIVMTQSPLSLPVTPGEPASISCQASESLVHSNRNTYLHWYLQKPGQSPQLLIYKVSNRFSGVPDRFSGSGSGTDFTLKISRVEAEDVGVYYCSQNTHVPPTFGQGTKVEIERTVAAPSVFIFPPSDEQLKSGTASVVCLLNNFYPREAKVQWKVDNALQSGNSQESVTEQDSKDSTYSLSSTLTLSKADYEKHKVYACEVTHQGLSSPVTKSFNRGEC
notes: as for B1
B11: GpH7-A5/GpH7-B3 variant V266_11K/GpL16-k0 (antibody, human IgG1, kappa)
heavy 1: not shown
heavy 2: not shown
light: DIVMTQSPLSLPVTPGEPASISCQASESLVHSNRNTYLHWYLQKPGQSPQLLIYKVSNRFSGVPDRFSGSGSGTDFTLKISRVEAEDVGVYYCSQNTHVPPTFGQGTKVEIERTVAAPSVFIFPPSDEQLKSGTASVVCLLNNFYPREAKVQWKVDNALQSGNSQESVTEQDSKDSTYSLSSTLTLSKADYEKHKVYACEVTHQGLSSPVTKSFNRGEC
notes: as for B1
B12: GpH7-A5/GpH7-B3 variant S267_15Y/GpL16-k0 (antibody, human IgG1, kappa)
heavy 1: not shown
heavy 2: not shown
light: DIVMTQSPLSLPVTPGEPASISCQASESLVHSNRNTYLHWYLQKPGQSPQLLIYKVSNRFSGVPDRFSGSGSGTDFTLKISRVEAEDVGVYYCSQNTHVPPTFGQGTKVEIERTVAAPSVFIFPPSDEQLKSGTASVVCLLNNFYPREAKVQWKVDNALQSGNSQESVTEQDSKDSTYSLSSTLTLSKADYEKHKVYACEVTHQGLSSPVTKSFNRGEC
notes: as for B1
B13: GpH7-A5/GpH7-B3 variant V266_05P/GpL16-k0 (antibody, human IgG1, kappa)
heavy 1: not shown
heavy 2: not shown
light: DIVMTQSPLSLPVTPGEPASISCQASESLVHSNRNTYLHWYLQKPGQSPQLLIYKVSNRFSGVPDRFSGSGSGTDFTLKISRVEAEDVGVYYCSQNTHVPPTFGQGTKVEIERTVAAPSVFIFPPSDEQLKSGTASVVCLLNNFYPREAKVQWKVDNALQSGNSQESVTEQDSKDSTYSLSSTLTLSKADYEKHKVYACEVTHQGLSSPVTKSFNRGEC
notes: as for B1
B14: GpH7-A5/GpH7-B3 variant S267_12R/GpL16-k0 (antibody, human IgG1, kappa)
heavy 1: not shown
heavy 2: not shown
light: DIVMTQSPLSLPVTPGEPASISCQASESLVHSNRNTYLHWYLQKPGQSPQLLIYKVSNRFSGVPDRFSGSGSGTDFTLKISRVEAEDVGVYYCSQNTHVPPTFGQGTKVEIERTVAAPSVFIFPPSDEQLKSGTASVVCLLNNFYPREAKVQWKVDNALQSGNSQESVTEQDSKDSTYSLSSTLTLSKADYEKHKVYACEVTHQGLSSPVTKSFNRGEC
notes: as for B1
B15: GpH7-A5/GpH7-B3 variant S267_04F/GpL16-k0 (antibody, human IgG1, kappa)
heavy 1: not shown
heavy 2: not shown
light: DIVMTQSPLSLPVTPGEPASISCQASESLVHSNRNTYLHWYLQKPGQSPQLLIYKVSNRFSGVPDRFSGSGSGTDFTLKISRVEAEDVGVYYCSQNTHVPPTFGQGTKVEIERTVAAPSVFIFPPSDEQLKSGTASVVCLLNNFYPREAKVQWKVDNALQSGNSQESVTEQDSKDSTYSLSSTLTLSKADYEKHKVYACEVTHQGLSSPVTKSFNRGEC
notes: as for B1
B16: GpH7-A5/GpH7-B3 variant V266_09D/GpL16-k0 (antibody, human IgG1, kappa)
heavy 1: not shown
heavy 2: not shown
light: DIVMTQSPLSLPVTPGEPASISCQASESLVHSNRNTYLHWYLQKPGQSPQLLIYKVSNRFSGVPDRFSGSGSGTDFTLKISRVEAEDVGVYYCSQNTHVPPTFGQGTKVEIERTVAAPSVFIFPPSDEQLKSGTASVVCLLNNFYPREAKVQWKVDNALQSGNSQESVTEQDSKDSTYSLSSTLTLSKADYEKHKVYACEVTHQGLSSPVTKSFNRGEC
notes: as for B1
B17: GpH7-A5/GpH7-B3 variant V266_15Y/GpL16-k0 (antibody, human IgG1, kappa)
heavy 1: not shown
heavy 2: not shown
light: DIVMTQSPLSLPVTPGEPASISCQASESLVHSNRNTYLHWYLQKPGQSPQLLIYKVSNRFSGVPDRFSGSGSGTDFTLKISRVEAEDVGVYYCSQNTHVPPTFGQGTKVEIERTVAAPSVFIFPPSDEQLKSGTASVVCLLNNFYPREAKVQWKVDNALQSGNSQESVTEQDSKDSTYSLSSTLTLSKADYEKHKVYACEVTHQGLSSPVTKSFNRGEC
notes: as for B1

How the values were obtained:
FcγRIa [1] = biological target: T2, FcγRIa (human, UniProt P12314 16-292); experiment: SPR; He/Con_1a divided by He/Con_2b (FcγRIIb as reference)
T2 construct: extracellular domain; also called FcgRI; 1a; not shown: His tag at the C terminus
T2 sequence (P12314 16-292): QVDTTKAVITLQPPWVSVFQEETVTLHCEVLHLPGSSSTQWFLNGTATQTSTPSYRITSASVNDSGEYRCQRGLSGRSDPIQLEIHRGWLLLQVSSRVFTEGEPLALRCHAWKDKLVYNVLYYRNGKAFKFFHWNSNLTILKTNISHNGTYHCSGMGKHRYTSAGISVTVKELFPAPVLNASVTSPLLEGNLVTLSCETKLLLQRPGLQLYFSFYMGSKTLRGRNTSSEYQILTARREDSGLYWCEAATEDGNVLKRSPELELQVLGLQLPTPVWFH

FcγRIIb = biological target: T1, FcγRIIb; experiment: SPR (Biacore), captured antibody, soluble FcγR; relative to GpH7-A5/GpH7-B3/GpL16-k0
FcγRIa [2] = biological target: T2, FcγRIa; experiment: as above

Row | Binder | Ia/IIb He_1a/2b (FcγRIa [1]) | He/Con_2b (FcγRIIb) | He/Con_1a (FcγRIa [2])
1 | B1 | 2.06 ratio | 45.1 relative, HeCon Ab = 100 | 92.7 relative, HeCon Ab = 100
2 | B2 | 5.37 ratio | 15.2 relative, HeCon Ab = 100 | 81.9 relative, HeCon Ab = 100
3 | B3 | 2.91 ratio | 31.5 relative, HeCon Ab = 100 | 91.8 relative, HeCon Ab = 100
4 | B4 | 1.77 ratio | 51.5 relative, HeCon Ab = 100 | 91.3 relative, HeCon Ab = 100
5 | B5 | 2.15 ratio | 47.7 relative, HeCon Ab = 100 | 102 relative, HeCon Ab = 100
6 | B6 | 7.65 ratio | 12.2 relative, HeCon Ab = 100 | 93.3 relative, HeCon Ab = 100
7 | B7 | 1.68 ratio | 57.6 relative, HeCon Ab = 100 | 96.7 relative, HeCon Ab = 100
8 | B8 | 1.52 ratio | 65.9 relative, HeCon Ab = 100 | 100 relative, HeCon Ab = 100
9 | B9 | 1.74 ratio | 57.2 relative, HeCon Ab = 100 | 99.4 relative, HeCon Ab = 100
10 | B10 | 1.67 ratio | 54.4 relative, HeCon Ab = 100 | 90.6 relative, HeCon Ab = 100
11 | B11 | 63.5 ratio | 1 relative, HeCon Ab = 100 | 64.4 relative, HeCon Ab = 100
12 | B12 | 2.48 ratio | 37.9 relative, HeCon Ab = 100 | 94.2 relative, HeCon Ab = 100
13 | B13 | 205 ratio | 0.4 relative, HeCon Ab = 100 | 71.9 relative, HeCon Ab = 100
14 | B14 | 8.21 ratio | 11.3 relative, HeCon Ab = 100 | 92.7 relative, HeCon Ab = 100
15 | B15 | 2.04 ratio | 48 relative, HeCon Ab = 100 | 97.7 relative, HeCon Ab = 100
16 | B16 | 7.88 ratio | 10.1 relative, HeCon Ab = 100 | 79.3 relative, HeCon Ab = 100
17 | B17 | 1.89 ratio | 49.4 relative, HeCon Ab = 100 | 93.3 relative, HeCon Ab = 100
